Publication PMC11763500
Where “and” joins values, the source holds several entries; their conditions need not be identical. Identical values can stand only once.

Legend:
[1] = molecular target: SARS-CoV-2 spike (S) protein, Omicron (SARS-CoV-2 Omicron variant) (UniProt P0DTC2); assay: SPR; settings: 5' di-DTPA (2 dithiol phosphoramidite) in printed sequence; not stated whether present in SPR analyte
[2] = molecular target: SARS-CoV-2 spike (S) protein, Omicron (SARS-CoV-2 Omicron variant) (UniProt P0DTC2); assay: electrochemical aptasensor (DPV); settings: 5' di-DTPA (2 dithiol phosphoramidite groups), on gold with PEG 2000 backfill
[3] = molecular target: SARS-CoV-2 spike (S) protein, alpha (SARS-CoV-2 alpha variant) (UniProt P0DTC2); assay: electrochemical aptasensor (DPV); settings: 5' di-DTPA (2 dithiol phosphoramidite groups), on gold with PEG 2000 backfill
[4] = molecular target: SARS-CoV-2 spike (S) protein, beta (SARS-CoV-2 beta variant) (UniProt P0DTC2); assay: electrochemical aptasensor (DPV); settings: 5' di-DTPA (2 dithiol phosphoramidite groups), on gold with PEG 2000 backfill

Sequence | Kd [1] [nM] | binding signal [2] [dI/I0] | binding signal [3] | binding signal [4]
GGGGGCGTCAAGCGGGGTCACATCGGAGTAGGGAATCTTG [C9t (SPR)] | 14.6 | – | – | –
GGGGGCGTCAAGCGGGGTCACATCGGAGTAGGGAATCTTG [C9t di-DTPA (surface-immobilized)] | – | 1240 | 17.9 dI/I0 and 31.9 dI/I0 | 27.1 dI/I0 and 43.6 dI/I0
